Measured values reported in US20210332142A1 (Genentech, published 2021).
Residue numbers refer to the chain shown, from its start. Read-outs that look alike come from different tables or passages of the source. Blank lines part the entries; values can stand above or below the binder they belong to.

Experiments:
[1] = molecular target: T1, recombinant cyno Tie2 extracellular domain (cynomolgus monkey, UniProt Q02763 23-748 (human entry)); assay: SPR, IgG captured, 37C
T1 construct: also called Recombinant cyno Tie2 ECD; cy Tie2
T1 chain: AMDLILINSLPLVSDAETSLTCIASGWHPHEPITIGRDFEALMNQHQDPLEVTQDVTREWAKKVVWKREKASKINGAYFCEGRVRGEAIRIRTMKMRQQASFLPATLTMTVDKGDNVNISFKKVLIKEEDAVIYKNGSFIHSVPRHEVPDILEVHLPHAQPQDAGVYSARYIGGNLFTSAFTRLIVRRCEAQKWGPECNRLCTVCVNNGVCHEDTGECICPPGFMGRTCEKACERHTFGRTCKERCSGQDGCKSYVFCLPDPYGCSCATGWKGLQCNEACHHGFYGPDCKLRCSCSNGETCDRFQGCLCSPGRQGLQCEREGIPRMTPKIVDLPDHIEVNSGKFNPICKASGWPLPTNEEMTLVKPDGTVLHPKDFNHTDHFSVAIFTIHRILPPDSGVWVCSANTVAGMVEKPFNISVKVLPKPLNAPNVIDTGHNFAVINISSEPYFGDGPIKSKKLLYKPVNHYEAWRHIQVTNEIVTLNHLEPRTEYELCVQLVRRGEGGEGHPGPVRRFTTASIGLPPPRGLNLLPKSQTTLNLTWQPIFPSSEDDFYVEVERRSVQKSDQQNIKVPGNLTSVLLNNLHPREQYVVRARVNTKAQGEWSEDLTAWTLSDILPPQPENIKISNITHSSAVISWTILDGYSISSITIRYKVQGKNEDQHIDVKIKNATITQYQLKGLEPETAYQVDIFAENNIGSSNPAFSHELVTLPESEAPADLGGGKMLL
Procedure: (§1) A human antibody capture chip was prepared using a Series S CM5 chip (GE Life Sciences), a human antibody capture kit (GE Life Sciences) and an amine coupling kit (GE Life Sciences). Antibodies diluted to 5 μg/ml in running buffer (10 mM HEPES, 150 mM NaCl, 0.05% Tween 20, 1 mM EDTA, pH 7.4) were non-covalently captured using a contact time of 20 seconds and a flow rate of 10 μl/minute. Binding to 300 nM and 1500 nM recombinant Tie2 was analyzed at 37° C. using a Single Cycle Kinetics method with a contact time of 60 seconds, a dissociation time of 120 seconds and a flow rate of 50 μl/min. Between cycles, the surface was regenerated by a 30 second injection of 3M MgCl₂ at a flow rate of 30 μl/min. Values for antibody capture levels and analyte binding levels were obtained from the Report Point Table (Biacore Evaluation Software v3.0, GE Life Sciences). […] Table 16: Experiment A; Table 17: Experiment B.

[2] = molecular target: T2, recombinant human Tie2 extracellular domain (human, UniProt Q02763 23-748); assay: SPR, IgG captured, 37C
T2 construct: whole entry named; also called Recombinant human Tie2 ECD; hu Tie2
Procedure: as §1
Target sequence in this assay (Q02763 23-748 limits assumed): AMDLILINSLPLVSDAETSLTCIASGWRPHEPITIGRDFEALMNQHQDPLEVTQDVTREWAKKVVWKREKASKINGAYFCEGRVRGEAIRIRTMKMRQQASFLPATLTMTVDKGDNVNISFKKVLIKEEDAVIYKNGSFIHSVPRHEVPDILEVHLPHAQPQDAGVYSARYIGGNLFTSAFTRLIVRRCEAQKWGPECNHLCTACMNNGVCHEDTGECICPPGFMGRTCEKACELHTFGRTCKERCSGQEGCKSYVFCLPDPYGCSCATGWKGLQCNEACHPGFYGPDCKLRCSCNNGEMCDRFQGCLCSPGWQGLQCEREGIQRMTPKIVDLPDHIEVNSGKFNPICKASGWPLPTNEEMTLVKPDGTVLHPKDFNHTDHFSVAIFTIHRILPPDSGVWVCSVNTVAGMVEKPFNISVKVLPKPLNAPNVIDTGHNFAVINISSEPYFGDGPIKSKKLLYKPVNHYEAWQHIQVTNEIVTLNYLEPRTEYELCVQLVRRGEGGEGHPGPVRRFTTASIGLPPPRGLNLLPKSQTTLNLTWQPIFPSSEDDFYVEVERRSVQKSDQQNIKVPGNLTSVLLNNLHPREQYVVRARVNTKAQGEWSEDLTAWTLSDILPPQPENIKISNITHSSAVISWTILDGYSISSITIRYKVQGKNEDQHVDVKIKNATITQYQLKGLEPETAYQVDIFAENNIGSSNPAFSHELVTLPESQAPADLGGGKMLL

[3] = molecular target: T1, recombinant cyno Tie2 extracellular …; assay: SPR, IgG captured, 37C
Procedure: as §1

[4] = molecular target: T2, recombinant human Tie2 extracellular …; assay: SPR, IgG captured, 37C; remark: listed apart in the source
Procedure: as §1
Target sequence in this assay (Q02763 23-748 limits assumed): as above

human Tie2ECD.flag = molecular target: T3, human Tie2ECD.flag (human, UniProt Q02763 23-748); assay: Biacore, hIgG captured, 25C
T3 construct: also called hTie2.flag; not shown: C-terminal Flag tag
T3 sequence (Q02763 23-748 limits assumed): as above
Procedure: (§2) Monovalent affinities of selected anti-Tie2 hIgGs were determined using a Biacore T200 instrument (GE Life Sciences). Anti-humanFc was covalently immobilized on a Series S CM5 Biacore sensor chip to enable non-covalent capture of anti-Tie2 antibodies and binding of human or rat Tie2ECD.flag was monitored in real time at 25° C. using a multi-cycle kinetics experiment format. Between cycles, the surface was regenerated with 3 M MgCl₂. Monovalent affinities were determined by kinetic analysis, using Biacore Evaluation Software (GE Life Sciences) to fit a 1:1 binding model to the data.

rat Tie2ECD.flag = molecular target: T4, rat Tie2ECD.flag (rat, UniProt A0ABK0L6J5 19-740); assay: Biacore, hIgG captured, 25C
T4 construct: extracellular domain; also called rTie2.flag; not shown: C-terminal Flag tag
Procedure: as §2

omalizumab = molecular target: T5, omalizumab; assay: phage ELISA
T5 construct: Used as irrelevant coated protein; also called irrelevant Fc-containing protein; not shown: the constant regions

[5] = molecular target: T6, mouse Tie2 full extracellular domain fused to mIgG2a Fc (mouse, UniProt Q02858 23-746); assay: phage ELISA
T6 construct: extracellular domain; also called mFull.Fc; not shown: Fc region of mIgG2a, fused at the C-terminus
Procedure: Clones from the fourth round were screened for Tie2 binding and specificity by ELISA. Screening ELISAs were carried out by coating the wells of a 96-well microtiter plate with Tie2 protein or irrelevant protein at 65 ul per well (1 ug/ml in coating buffer) at 4° C. overnight. In a 96-tube plate, colonies from the fourth round were grown overnight at 37° C. in 400 ul 2YT media with 50 ug/ml carbenicillin and helper phage K07. The plate was spun down at 3000 rpm for 10 min. 30 ul of the culture supernatant was added with 60 ul of ELISA buffer (PBS with 0.5% BSA and 0.05% Tween20) to the Tie2-coated plate and incubated at room temperature for 1 hr. Plates were washed with PBS—0.05% Tween20 and 100 ul/well of horseradish peroxidase (HRP)-conjugated anti-M13 antibody (1/5000 dilution in PBS plus 0.5% BSA and 0.05% Tween20) at room temperature for 30 min (Sidhu et al., supra). The wells were washed with PBS—0.05% Tween20 prior to 100 ul/well of a 1:1 ratio of 3,3′,5,5′-tetramethylbenzidine (TMB) peroxidase substrate and Peroxidase Solution B (H₂O₂) ((Kirkegaard-Perry Laboratories (Gaithersburg, Md.)) being added per well and incubated for 5 min at room temperature. The reaction was stopped by adding 100 ul 1M phosphoric Acid (H₃PO₄) per well and the OD of wells was determined using a standard ELISA plate reader at 450 nm.

[6] = molecular target: T1, recombinant cyno Tie2 extracellular …; assay: SPR multi-cycle kinetics, IgG captured, kinetic analysis; cyno Tie2; kinetic analysis
Procedure: (§3) Binding to recombinant human and cyno Tie2 was analyzed using a high performance multi-cycle kinetics format with a contact time of 60 seconds, a dissociation time of 60 seconds, a flow rate of 100 μl/minute and Tie2 concentrations of 5 μM, 2.5 μM, 1.25 μM, 625 nM, 313 nM and 156 nM. Tie2 concentrations of 5 μM, 2.5 μM and 1.25 μM were injected twice. Results were analyzed using Biacore T200 Evaluation Software v3.0 (GE Life Sciences). Results from all three surface densities were analyzed together using the 1:1 Binding model with multiple Rmax and the RI parameter set to zero.

[7] = molecular target: T1, recombinant cyno Tie2 extracellular …; assay: SPR multi-cycle kinetics, IgG captured, kinetic analysis
Procedure: as §3

[8] = molecular target: T1, recombinant cyno Tie2 extracellular …; assay: SPR, IgG captured, steady state analysis
Procedure: as §3

[9] = molecular target: T2, recombinant human Tie2 extracellular …; assay: SPR, IgG captured, steady state analysis
Procedure: as §3

[10] = molecular target: T2, recombinant human Tie2 extracellular …; assay: SPR multi-cycle kinetics, IgG captured, kinetic analysis
Procedure: Binding to 300 nM and 1500 nM recombinant Tie2 was analyzed at 37° C. using a Single Cycle Kinetics method with a contact time of 60 seconds, a dissociation time of 120 seconds and a flow rate of 50 μl/min. Between cycles, the surface was regenerated by a 30 second injection of 3M MgCl₂ at a flow rate of 30 μl/min. Values for antibody capture levels and analyte binding levels were obtained from the Report Point Table (Biacore Evaluation Software v3.0, GE Life Sciences). […] Table 16: Experiment A; Table 17: Experiment B.
as §3

[11] = molecular target: T2, recombinant human Tie2 extracellular …; assay: SPR multi-cycle kinetics, IgG captured, kinetic analysis; human Tie2; kinetic analysis
Procedure: as §3

binding result (omalizumab): no binding
Kd (human Tie2ECD.flag): 0.376 µM
Kd (rat Tie2ECD.flag): 2.2 µM
binding result [5]: binds
B3: Tie2.38 (antibody, IgG1, V domains shown)
VH: EVQLVESGGGLVQPGGSLRLSCAASGFTFSNSAIHWVRQAPGKGLEWVASITPYNGYTYYADSVKGRFTISADTSKNTAYLQMNSLRAEDTAVYYCARRQSYSYVMDYWGQGTLVTVSS
VL: DIQMTQSPSSLSASVGDRVTITCRASQDVSTAVAWYQQKPGKAPKLLIYSASFLYSGVPSRFSGSGSGTDFTLTISSLQPEDFATYYCQQSYTTPPTFGQGTKVEIKR
notes: hIgG1 in later assays; also called Ab38

binding result (omalizumab): no binding
binding result [5]: binds
B5: Tie2.33 (antibody, IgG1, V domains shown)
VH: EVQLVESGGGLVQPGGSLRLSCAASGFTFSGSWISWVRQAPGKGLEWVARINPYDGNTYYADSVKGRFTISADTSKNTAYLQMNSLRAEDTAVYYCARNNRFPTWFDYWGQGTLVTVSS
VL: B3 VL
notes: hIgG1 in later assays; also called Ab33; T2.33

More lines, now with the values behind:

B1: Tie2.1.M100cY (antibody, IgG1, name in Kabat numbering, V domains shown)
VH: EVQLVESGGGLVQPGGSLRLSCAASGFTFSNTDISWVRQAPGKGLEWVGRISPSDGNTYYADSVKGRFTISADTSKNTAYLQMNSLRAEDTAVYYCARRTRWASWAYDYWGQGTLVTVSS
VL: B3 VL
notes: hIgG1
Normalized Binding Signal, 300 nM [1]: 0.13
Normalized Binding Signal, 1500 nM [1]: 0.45
Normalized Binding Signal, 300 nM [2]: 0.15
Normalized Binding Signal, 1500 nM [2]: 0.47
Normalized Binding Signal, 300 nM [3]: 0.13
Normalized Binding Signal, 1500 nM [3]: 0.44
Normalized Binding Signal, 300 nM [4]: 0.15
Normalized Binding Signal, 1500 nM [4]: 0.46

B2: Tie2.34 (antibody, IgG1, V domains shown)
VH: EVQLVESGGGLVQPGGSLRLSCAASGFTFSDTYIHWVRQAPGKGLEWVAVIYPDNGATYYADSVKGTYYADSVKGRFTISADTSKNTAYLQMNSLRAEDTAVYYCAREFACARCVYGMDYWGQGTLVTVSS
VL: B3 VL
notes: hIgG1 in Biacore; also called Ab34
Kd (human Tie2ECD.flag): 0.155 µM
Kd (rat Tie2ECD.flag): 0.057 µM

B4: Tie2.1.M100cF (antibody, IgG1, V domains shown)
VH: B1 VH with Y107F
VL: DIQMTQSPSSLSASVGDRVTITCRASQDVSTAVAWYQQKPGKAPKLLIYSASFLYSGVPSRFSGSGSGTDFTLTISSLQPEDFATYYCQQSYTTPPTFGQGTKVEIK
notes: hIgG1 in the SPR and binning assays
Kd [6]: 2 µM
Normalized Binding Signal, 300 nM [1]: 0.14
Normalized Binding Signal, 1500 nM [1]: 0.46
Normalized Binding Signal, 300 nM [2]: 0.16
Normalized Binding Signal, 1500 nM [2]: 0.48
koff [7]: 0.37 s⁻¹
kon [7]: 190000 M⁻¹ s⁻¹
Kd [8]: 2 µM
Kd [9]: 2 µM
koff [10]: 0.39 s⁻¹
kon [10]: 220000 M⁻¹ s⁻¹
Normalized Binding Signal, 300 nM [3]: 0.12
Normalized Binding Signal, 1500 nM [3]: 0.42
Normalized Binding Signal, 300 nM [4]: 0.14
Normalized Binding Signal, 1500 nM [4]: 0.44
Kd [11]: 2 µM
